Results on 3 substances are retold here after patent publication US7390643B2, “Geranyl diphosphate synthase molecules, and nucleic acid molecules encoding same” (Washington State University Research Foundation, priority 2002, dated 2008).

The subject of data set [1] is C=C(C)CCO[P@@](=O)(O)OP(=O)(O)O. The data set is described as follows: purified protein, by the assay type. To be noted: 70.0 °C; for kcat: other: IPP and DMAPP as co-substrates, MgCl2 cofactor; for Km: other: apparent, at saturating concentrations of DMAPP (350 mM [sic]), means ± SD of three determinations.
Procedure: (§1) The assay procedures and methods for product analysis were similar to those previously described (C. Burke and R. Croteau, J. Biol. Chem. 277:3141-3149, 2002), except that for radio-GC a Raga (Raytest) radio-detector connected in-line to a Series 600 (Gow-Mac) chromatograph was employed with a 5% phenyl polysiloxane (ZB-5; Phenomenex) capillary column under hydrogen gas flow (70° C. for 5 min. followed by an 8° C. per min. ramp to 240° C. for 5 min).
(§2) Molecular weight determination and kinetic evaluation. […] For kinetic evaluation, the standard prenyltransferase assay was performed (C. Burke and R. Croteau, J. Biol. Chem. 277:3141-3149, 2002) but the reaction was terminated after 4 min. to ensure linearity in the rate measurements.
(§3) Kinetic characterization of the GPP synthases (SEQ ID NOS:12, 16, and 20).
The test system of data set [2] is CC(C)=CCOP(=O)(O)OP(=O)(O)O. The data set is described as follows: purified protein, by the assay type. The settings on record: other: apparent; at saturating concentrations of IPP (212 mM [sic]); means ± SD of three determinations; 70.0 °C.
Procedure: as §1, §2, §3

By kcat is commonly meant the number of substrate molecules converted per active site and unit of time at saturation. As a reminder, the Km is the substrate concentration at which the rate is half of its maximum.

Values joined by “and” are separate entries in the source; they are usually repeats but may differ in a detail not shown here. Equal entries are not always repeated.

For “Grand fir (Abies grandis) geranyl diphosphate synthase AgGPPS1, N-terminally truncated (E88M), C-terminal His6 tag, SEQ ID NO: 16 (Abies grandis; E88M)”, in data set [1], the kcat was found to be 1.6 s⁻¹. For the same substance, the Michaelis-Menten constant (Km) stood at 44 ± 5 µM in data set [1] and 163 ± 13 µM in data set [2].
On the same counts, the results for “Grand fir (Abies grandis) geranyl diphosphate synthase AgGPPS2, N-terminally truncated (E86M), C-terminal His6 tag, SEQ ID NO: 12 (Abies grandis; E86M)” are 1.8 s⁻¹, 55 ± 4 µM and 90 ± 1 µM.
In the case of “Grand fir (Abies grandis) geranyl diphosphate synthase AgGPPS3, N-terminally truncated (E92M), C-terminal His6 tag, SEQ ID NO: 20 (Abies grandis; E92M)”, the kcat in data set [1] was 0.47 s⁻¹ and 0.5 ± 0.1 s⁻¹. Also, the Km in data set [1] stood at 44 ± 7 µM; in data set [2], 82 ± 5 µM.
